Reference: patent publication US11555069B2, “Cognitive function improving agent” (Kao Corporation, priority 2016, dated 2023)

T1: GIP(1-42) (Homo sapiens, UniProt P09681)
T1 sequence (P09681 52-93): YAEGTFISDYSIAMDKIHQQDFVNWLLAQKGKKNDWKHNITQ

T2: GIP(3-42) (Homo sapiens, UniProt P09681)
T2 sequence (P09681 54-93): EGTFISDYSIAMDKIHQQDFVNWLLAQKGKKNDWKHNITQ

B1: monoclonal antibody prepared in Production Example 1: anti-active GIP monoclonal antibody produced by hybridoma 9B9H5-B9 line; H-chain variable region SEQ ID NO: 2, L-chain variable region SEQ ID NO: … (antibody, listed as Mus musculus, V domains shown)
VH: QVQLQQPGAELVKPGASVKLSCKASGYTFTSFWMHWVIQRPGQGLEWIGEMNPSDGRTHFNEKFKTKATLTIDTSSNTAYMELNSLTSEDSAVYYCARRMEDWGQGTLVTVSA
VL: DIKMTQSPSSMYASLGERVTITCKASQDINSYLGWFQQKPGKSPKTLIYGANRLVDGVPSRFSGSGSGQDYSLTISSLEYDDMGIYYCLQYDEFPLTFGAGTKLELKR

Columns and labels:
db/db mice [1] = assay: Y-maze (short-term memory) test, Example 1; assay type: in vivo, mouse; settings: db/db mice 30-week-old, i.p. twice a week, 20 days after start (after seven administrations); GIP 5 nmol/kg, anti-GIP antibody 1 mg/kg; FIG. 2
Method: (§1) Six-week-old leptin receptor deficient C57BLKS/J male mice (db/db mice, Oriental Yeast Co., Ltd.) were transferred (room temperature: 23° C., humidity: 55±10%, light period: 7:00 to 19:00) and were fed with food and water ad libitum. The food was CE-2 (CLEA Japan, Inc.), and the mice were acclimated for 2 weeks under the above-mentioned environment and were then used for testing.
(§2) Mouse-derived GIP (manufactured by AnaSpec, Inc.) was dissolved in physiological saline at a concentration of 500 nM to give a GIP solution. […]
(§3) The test was performed 10 days before the start of the administration and 20 days after the start of the administration (after seven administrations) to measure the short-term memory and learning ability (working memory). Each mouse was placed at an end of a plastic Y-maze (manufactured by Noldus Information Technology) in which the arms each have a length of 40 cm and a height of 12 cm and form an angle of 120° with each other, and the behavior of the mouse was video-recorded for 10 minutes to measure the order and the number of entries into the arms. The score of short-term memory and learning ability was evaluated by the spontaneous alternation behavior change rate (see the following calculation formula). […]

db/db mice [2] = assay: Novel object recognition (long-term memory) test, Example 1; assay type: in vivo, mouse; settings: db/db mice 30-week-old, i.p. twice a week, 15 days after start (after six administrations); GIP 5 nmol/kg, anti-GIP antibody 1 mg/kg; FIG. 3
Method: as §1, §2
The test was performed 5 days before the start of the administration and 15 days after the start of the administration (after six administrations) to measure the long-term memory and learning ability (reference memory). […] On the following day, two identical objects (rubber objects wrapped with blue rubber tape: columns each having 4 cm diameter and 3.5 cm height) were placed in the box (at a position with a space of 10 cm in length and 10 cm in width from the wall), and the behavior of the mouse was video-recorded for 5 minutes to measure the number of recognitions (the number of times the mouse approached each object within 1 cm) (training trial, on the 14th day from the start of the administration). […] The score of long-term memory and learning ability was evaluated by the recognition rate of the novel object in the retention trial (see the following calculation formula). […]

GIP(1-42) = target: T1, GIP(1-42); assay: Sandwich ELISA, reactivity with active GIP; assay type: binding; settings: biotinylated antibody 1 μg/mL as detection antibody, GIP 8.2 to 2000 pg/mL, FIG. 1
Method: (§4) The reactivity between the monoclonal antibody prepared in Production Example 1 and active GIP was confirmed by ELISA. The amino group of the anti-active GIP monoclonal antibody was biotinylated with NH2 group biotinylation kit (manufactured by Dojindo Laboratories). ELISA was performed using the produced biotinylated anti-active GIP monoclonal antibody at 1 μg/mL instead of a detection antibody, GIP detection antibody (biotinylated anti-total GIP monoclonal antibody), included in Human (total) GIP ELISA kit (manufactured by EMD Millipore Corporation). A […] dilution series of GIP(1-42) or GIP(3-42) was prepared in 6 steps (8.2 to 2000 pg/mL) with a 2000 pg/mL solution as the highest concentration. By using an anti-total GIP monoclonal antibody (included in Human GIP (total) ELISA kit manufactured by EMD Millipore Corporation) as a capture antibody, the biotinylated anti-active GIP monoclonal antibody as a detection antibody, and a peroxidase-streptavidin conjugate for detection, sandwich ELISA was conducted to prepare a calibration curve with GIP concentration on the X-axis and 450 nm-590 nm absorbance on the Y-axis (FIG. 1).

[3] = target: T3, PEGylated N-terminus 13 amino acids of inactive GIP (GIP(3-15)) (Homo sapiens, UniProt P09681); assay: Hybridoma screening/cloning ELISA with immobilized antigen (2); assay type: binding; settings: hybridoma culture supernatant, immobilized PEGylated GIP(3-15)
T3 construct: made in house; host or cells: peptide synthesis (no expression host)
Method: (§5) Polyethylene glycol was added to N-terminus 15 amino acids of active GIP (GIP(1-15)) (PEGylation (polyethylene glycolation)), and keyhole limpet hemocyanin (KLH) was then chemically bonded thereto to produce KLH-linked PEGylated GIP (1-15) as an immunogen.

[4] = tested on: C57BL/6J mice (107-week-old); assay: Y-maze (short-term memory) test in aged mice, Example 3; assay type: in vivo, mouse; settings: aged C57BL/6J mice (107-week-old), 0.5 mg/kg i.p. once a week, 6 times; compared to non-administration and control group; FIG. 5
Method: (§6) Four-week-old C57BL/6J male mice (CLEA Japan, Inc.) were transferred (room temperature: 23° C., humidity: 55±10%, light period: 7:00 to 19:00) and were fed with food (D12450K, Research Diets, Inc.) and water ad libitum for 111 weeks.
(§7) The anti-active GIP antibody produced in Production Example 1 was dissolved in physiological saline at a concentration of 0.05 mg/mL to give an anti-GIP antibody solution.
(§8) Physiological saline (control group) or the anti-GIP antibody solution (0.5 mg/kg body weight) (anti-GIP antibody administration group) was intraperitoneally administered to C57BL/6J mice (107-week-old) once a week (9:00 to 10:00 a.m.), 6 times in total.
as §3, with “1 week” for “10 days”, “1 week” for “20 days”, “two administrations), 3 weeks after the start (after four administrations), and 5 weeks after the start (after six” for “seven”, “arms.” for “arms. The score of short-term memory and learning ability was evaluated by the spontaneous alternation behavior change rate (see the following calculation formula).”

[5] = tested on: C57BL/6J mice (107-week-old); assay: Novel object recognition (long-term memory) test in aged mice, Example 3; assay type: in vivo, mouse; settings: aged C57BL/6J mice (107-week-old), 0.5 mg/kg i.p. once a week, 5 weeks after start; compared to control group; FIG. 6
Method: as §6, §7, §8
The test was performed 5 weeks after the start of the administration to measure the long-term memory and learning ability (reference memory). […] On the following day, two identical objects (rubber objects wrapped with blue rubber tape: columns each having 4 cm diameter and 3.5 cm height) were placed in the box (at a position with a space of 10 cm in length and 10 cm in width from the wall), and the behavior of the mouse was video-recorded for 5 minutes to measure the number of recognitions (the number of times the mouse approached each object within 1 cm) (training trial). […]

[6] = target: T4, PEGylated N-terminus 15 amino acids of active GIP (GIP(1-15)) (Homo sapiens, UniProt P09681); assay: Hybridoma screening/cloning ELISA with immobilized antigen (1); assay type: binding; settings: hybridoma culture supernatant, immobilized PEGylated GIP(1-15)
T4 construct: PEGylated N-terminus 15 amino acids of active GIP (GIP(1-15)); made in house; host or cells: peptide synthesis (no expression host)
Method: as §5

GIP(3-42) = target: T2, GIP(3-42); assay: Sandwich ELISA, cross-reactivity with inactive GIP; assay type: binding; settings: biotinylated antibody 1 μg/mL as detection antibody, GIP 8.2 to 2000 pg/mL, FIG. 1
Method: as §4

Molecule	spontaneous alternation behavior change rate (short-term memory and learning ability) (db/db mice [1])	novel object recognition rate (long-term memory and learning ability) (db/db mice [2])	reactivity with GIP(1-42) (450 nm-590 nm absorbance) (GIP(1-42))	ELISA reaction with antigen (2) for measurement [3]	spontaneous alternation behavior change rate (short-term memory and learning ability) [4]	novel object recognition rate (long-term memory and learning ability) [5]	ELISA reaction with antigen (1) for measurement [6]	cross-reactivity with GIP(3-42) (450 nm-590 nm absorbance) (GIP(3-42))
GIP: Mouse-derived GIP (manufactured by AnaSpec, Inc.) dissolved in physiological saline at 500 nM (YAEGTFISDYSIAMDKIRQQDFVNWLLAQRGKKSDWKHNITQ; Gastric inhibitory polypeptide; UniProt P48756 44-85, looked up)	a decrease in the spontaneous alternation behavior change rate (short-term memory and learning ability) was observed	a decrease in the novel object recognition rate (long-term memory and learning ability) was observed						
B1			capable of specifically detecting GIP(1-42)	negative for the antigen (2)	an increase in the spontaneous alternation behavior change rate (short-term memory and learning ability) was observed	an increase in the novel object recognition rate (long-term memory and learning ability) was observed	positive for the antigen (1)	does not show cross-reactivity with GIP(3-42)
